Experiments:
DNP-BSA [1] = molecular target: DNP-BSA (UniProt P02769); experiment: indirect ELISA, DNP-BSA coated 3 ug/ml, antibody at 15.625 ng/ml
DNP-BSA [2] = molecular target: DNP-BSA (UniProt P02769); experiment: indirect ELISA, DNP-BSA coated 3 ug/ml, antibody at 7.813 ng/ml
DNP-BSA [3] = molecular target: DNP-BSA (UniProt P02769); experiment: indirect ELISA, DNP-BSA coated 3 ug/ml, antibody at 62.5 ng/ml
DNP-BSA [4] = molecular target: DNP-BSA (UniProt P02769); experiment: BLI, antibody captured on AMC sensor, DNP-BSA in solution
DNP-BSA [5] = molecular target: DNP-BSA (UniProt P02769); experiment: indirect ELISA, DNP-BSA coated 3 ug/ml, antibody at 125 ng/ml
DNP-BSA [6] = molecular target: DNP-BSA (UniProt P02769); experiment: indirect ELISA, DNP-BSA coated 3 ug/ml, antibody at 31.25 ng/ml
DNP-BSA [7] = molecular target: DNP-BSA (UniProt P02769); experiment: indirect ELISA on DNP-BSA, antibody stored 21 days at -80 C, at 15.625 ng/ml
DNP-BSA [8] = molecular target: DNP-BSA (UniProt P02769); experiment: indirect ELISA on DNP-BSA, antibody stored 21 days at 37 C, at 125 ng/ml
DNP-BSA [9] = molecular target: DNP-BSA (UniProt P02769); experiment: indirect ELISA on DNP-BSA, antibody stored 21 days at 4 C, at 125 ng/ml
DNP-BSA [10] = molecular target: DNP-BSA (UniProt P02769); experiment: indirect ELISA on DNP-BSA, antibody stored 21 days at -80 C, at 125 ng/ml
DNP-BSA [11] = molecular target: DNP-BSA (UniProt P02769); experiment: indirect ELISA on DNP-BSA, antibody stored 21 days at 37 C, at 15.625 ng/ml
DNP-BSA [12] = molecular target: DNP-BSA (UniProt P02769); experiment: indirect ELISA on DNP-BSA, antibody stored 21 days at 4 C, at 15.625 ng/ml

Chain of UniProt P02769 (P02769 25-607 limits assumed, form in doubt): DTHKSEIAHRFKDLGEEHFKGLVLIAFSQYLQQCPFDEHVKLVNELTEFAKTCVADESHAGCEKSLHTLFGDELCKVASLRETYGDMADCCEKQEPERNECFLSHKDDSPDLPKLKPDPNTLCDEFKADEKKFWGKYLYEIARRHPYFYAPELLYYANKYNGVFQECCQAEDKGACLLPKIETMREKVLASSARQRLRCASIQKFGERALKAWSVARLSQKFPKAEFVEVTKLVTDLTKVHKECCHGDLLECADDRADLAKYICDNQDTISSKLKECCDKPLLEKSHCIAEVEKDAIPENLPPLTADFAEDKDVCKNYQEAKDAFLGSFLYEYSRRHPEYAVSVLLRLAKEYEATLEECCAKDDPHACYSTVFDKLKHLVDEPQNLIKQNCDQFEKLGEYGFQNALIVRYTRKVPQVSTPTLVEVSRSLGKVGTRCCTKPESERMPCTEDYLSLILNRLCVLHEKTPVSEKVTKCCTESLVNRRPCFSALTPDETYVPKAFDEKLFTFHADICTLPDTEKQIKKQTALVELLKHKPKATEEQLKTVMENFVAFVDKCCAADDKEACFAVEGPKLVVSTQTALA

| Molecule | OD (450 nm, ref 630 nm) (DNP-BSA [1]) | OD (450 nm, ref 630 nm) (DNP-BSA [2]) | OD (450 nm, ref 630 nm) (DNP-BSA [3]) | Kd (DNP-BSA [4]) | koff (DNP-BSA [4]) | kon (DNP-BSA [4]) | OD (450 nm, ref 630 nm) (DNP-BSA [5]) | OD (450 nm, ref 630 nm) (DNP-BSA [6]) | OD (450 nm, ref 630 nm) (DNP-BSA [7]) | OD (450 nm, ref 630 nm) (DNP-BSA [8]) | OD (450 nm, ref 630 nm) (DNP-BSA [9]) | OD (450 nm, ref 630 nm) (DNP-BSA [10]) | OD (450 nm, ref 630 nm) (DNP-BSA [11]) | OD (450 nm, ref 630 nm) (DNP-BSA [12]) |
| --- | --- | --- | --- | --- | --- | --- | --- | --- | --- | --- | --- | --- | --- | --- |
| 对照 (antibody) | 0.375 OD | 0.229 OD | 1.53 OD | 2.57 nM | 0.00055 s⁻¹ | 214000 M⁻¹ s⁻¹ | 2.37 OD | 0.949 OD |  |  |  |  |  |  |
| Anti-DNP-6G1mut2 (antibody, mouse IgG1, V domains shown) VH: EVQLQESGPSLVKPSQTLSLTCSVTGDSIITGYWNWIRKFPGNKLEFMGYISYSGRTYYNPSLKSRVSITRDTSKNQYYLQLSSVTTEDAATYYCTRWTTAYFGIDSWGQGISVTVSS VL: QAVVTQESALTTSPGGTVILTCRSSTGAVTTSNNANWVQEKPDHLFTGLIGGTSNRAPGVPVRFSGSLIGDKAALTITGAQTEDDAMYFCALWYSTHYVFGGGTKVTVLG | 0.987 OD | 0.516 OD | 2.17 OD | 0.287 nM | 0.00039 s⁻¹ | 1.36e+06 M⁻¹ s⁻¹ | 2.28 OD | 1.61 OD |  |  |  |  |  |  |
| Anti-DNP-6G1mut1 (antibody, mouse IgG1, V domains shown) VH: EVQLQESGPSLVKPSQTLSLTCSVTGDSIITGYWNWIRKFPGNKLEFMGYISYSGRTYYNPSLKSRVSITRDTSKNQYYLQLSSVTTEDAATYYCTRWTTAYFGIDSWGQGISVTVSS VL: QAVVTQESALTTSPGGTVILTCRSSTGAVTTSNNANWVQEKPDHLFTGLIGGTSNRAPGVPVRFSGSLIGDKAALTITGAQTEDDAMYFCAIWYSTHYVFGGGTKVTVLG | 0.96 OD | 0.504 OD | 1.95 OD | 0.168 nM | 0.00042 s⁻¹ | 2.5e+06 M⁻¹ s⁻¹ | 2.25 OD | 1.69 OD | 0.977 OD | 2.26 OD | 2.21 OD | 2.24 OD | 0.985 OD | 0.991 OD |

— patent CN116640222A
